What was measured:
[1] = target: human folate receptor 1 (folate receptor alpha, FRα) on T47D cells (human) (UniProt P15328); test: flow cytometry on T47D cells, FITC anti-human IgG Fcγ detection; control run with M-sSPDB-87
[2] = target: human folate receptor 1 (folate receptor alpha, FRα) on T47D cells (human) (UniProt P15328); test: flow cytometry on T47D cells, FITC anti-human IgG Fcγ detection; control run with M-sSPDB-109
[3] = target: human folate receptor 1 (folate receptor alpha, FRα) on T47D cells (human) (UniProt P15328); test: flow cytometry on T47D cells, FITC anti-human IgG Fcγ detection; control run with M-160
[4] = target: human folate receptor 1 (folate receptor alpha, FRα) on T47D cells (human) (UniProt P15328); test: flow cytometry on T47D cells, FITC anti-human IgG Fcγ detection; control run with M-sSPDB-30
[5] = target: human folate receptor 1 (folate receptor alpha, FRα) on T47D cells (human) (UniProt P15328); test: flow cytometry on T47D cells, FITC anti-human IgG Fcγ detection; control run with M-10
[6] = target: human folate receptor 1 (folate receptor alpha, FRα) on T47D cells (human) (UniProt P15328); test: flow cytometry on T47D cells, FITC anti-human IgG Fcγ detection; control run with M-166
[7] = target: human folate receptor 1 (folate receptor alpha, FRα) on T47D cells (human) (UniProt P15328); test: flow cytometry on T47D cells, FITC anti-human IgG Fcγ detection; control run with M-sSPDB-127
[8] = target: human folate receptor 1 (folate receptor alpha, FRα) on T47D cells (human) (UniProt P15328); test: flow cytometry on T47D cells, FITC anti-human IgG Fcγ detection; control run with M-sSPDB-17

Chain of human folate receptor 1 (folate receptor alpha, FRα) on T47D cells (human) (P15328 25-234, stated change not applied): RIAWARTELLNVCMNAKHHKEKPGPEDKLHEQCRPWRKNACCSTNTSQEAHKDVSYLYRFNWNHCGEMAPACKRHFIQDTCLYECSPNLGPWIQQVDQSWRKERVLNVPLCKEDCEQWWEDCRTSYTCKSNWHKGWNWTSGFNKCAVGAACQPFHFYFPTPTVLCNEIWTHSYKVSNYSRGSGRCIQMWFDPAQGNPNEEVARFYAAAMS

B1: huMov19 antibody (unconjugated) (antibody, from a related filing, V domains shown)
VH: QVQLVQSGAEVVKPGASVKISCKASGYTFTGYFMNWVKQSPGQSLEWIGRIHPYDGDTFYNQKFQGKATLTVDKSSNTAHMELLSLTSEDFAVYYCTRYDGSRAMDYWGQGTTVTVSS
VL: DIVLTQSPLSLAVSLGQPAIISCKASQSVSFAGTSLMHWYHQKPGQQPRLLIYRASNLEAGVPDRFSGSGSKTDFTLTISPVEAEDAATYYCQQSREYPYTFGGGTKLEIKR
- EC50 [1]: 0.2 nM
- EC50 [2]: 0.2 nM
- EC50 [3]: 0.2 nM
- EC50 [4]: 0.2 nM
- EC50 [5]: 0.3 nM
- EC50 [6]: 0.2 nM
- EC50 [7]: 0.2 nM
- EC50 [8]: 0.2 nM

Reference: patent publication US20200397914A1
